Measured values from the DeepSol protein solubility set.

Test: soluble on expression in E. coli; label from the status in PepcDB or PDB records

Sequence	soluble on expression in E. coli
MDVLSLLRVFGRRRRGLRDLEVSEPEFGDRPEYLEEYVRRFTSETGREEPELVEKIPSSMKNAREFNVIYPVGFGIFIHAYNDPLSESGYNKYVVVEPPRPPEDLVRLIDYKIALVLSEEDAPRSSEEKKRILLAALDKVVAVTSSERIAGGNGGNGSWQYAVKRGRIVIPERYYNYLKYHFIREKVGVGPLEPFLRDPYLEDISCNGVGPVYVVHKMFRSLESSVRFETEGELDDFILKLGEKIGKPISHARPVVDATLPDGSRINIVFGSDVSLKGSNFTIRKVSKIPISVTQLIKWGTFDARIAAYMWMMLEEGMSVFICGETASGKTTSLNAISVFIRPDAKIVTIEDTAEVVLPHPNWTRELTRNTGKPETSVTMFDLLRAALRQRPNYIIVGEIRGAEGNIAFQAMQTGHPVMATFHAANLSRLLQRLTNHPINVPKTNIDSLNIAWFQSAVHVKGFPARRVLEIDEIIGYDPSSGAIAAVPSFTWDPVRDKFIFSGRGASYLLEEKIATMKGIPRRELSIIYEELELRRRFLQTLVDKNILDYFDVYKAIVRAYNIGVEEALKRLERDELLS	soluble
MVEMDGRKFLKLLKEEVHKAVVGKDDVIELLAIALLAEGHVMIEGVPGVAKTTIAKSFAQVLGLKFSRIQLTPDLLPADILGTVYYDQSDGLWKIKKGPIFANVVLADEINRAQPKTQSALLEAMQERQVTIEGRTFPLEKPFMVIATKNPIEFEGVYNLPEAQVDRFMLNIKIGYPTREEEVEMLRKKDRGELGEVGRIFSREQIVRMINEVKRVKTSEEVLHYLYEIVNETRKDERLIVGASPRASEHLLYASKAKAFLEGRDYVIPDDVKFLAVPVLAHRLLIKAEHEIEGIKGEDIVREILERVEVPI	soluble
MSMLSMDGIVAGGGSSSGGGERSFVLEQKMFNTGPQNKALPTVQSSGSSSNHAPIVGESPLGTVSSTMATGDTGRVGNVTYMSSGMLGATQFMPQNSSHPSTSVMMQQVPPQNGGATRSSPTEMQQCMQAMSEDSIEMRDYNSGVHHMHPHQMQMQQQQQHHQQQYNMSYHNHQQQMQQMHYHQQQQQYQQQQAQHHQMYAPQIQQQQQQPQQQSQQQSAQQPQQSSAALQHVNESSNLSSAGSISDREPEQHGGTPQRPTAPQSSTATDKKTRKRRKAGPTEDQATPKQERKITEFMKVGGEVASGNSVARCLLTEYHQNQGSPKRQPAVQQNGSNSYDSQQQQPQMNQHEMQNSYWGVATPSLGVNNRGTPTPTQQQHYSSDSNSNSNQSPPGQGNQSGRMVRTIDEETQTDSSLSQANPQNADEVAKMNRIIEDHRRQIEELNSKNSLERRKNEASKETIKRLLIDKNQIERKALRDKTAADSPRIGCFKTTRTGDSFRDQWVDGWAFAEMDKKTEQINAERNEIASASALLKKRKPLGIGKEPKRPQAVNSQNDSNGMQPSTSSNTNGDDAIFRRPEEPKEIQYQEYIELDEIYKLRREHLRKEETDLSMEKERLEKEKQHHVRELKRASNESASQFNDHRLLHKRYLMLNLLGKGGFSEVWKAFDIEENRYVACKIHHVNKDWKEEKKANYVKHAMREKDIHKSLDHCRIVKQYDLLTIDNHSFCTVLEYVPGNDLDFYLKQNRSISEKEARSIIMQVVSALVYLNEKSTPIIHYDLKPANILLESGNTSGAIKITDFGLSKIMEGESDDHDLGIELTSQFAGTYWYLPPETFIVPPPKITCKVDVWSIGVIFYQCIYGKKPFGNDLTQQKILEYNTIINAREVSFPSKPQVSSAAQDFIRRCLQYRKEDRADVFELAKHELFRPRGAIRASVAGSVSSPSIPRSPSVNREDDNM	not soluble
MGSDKIHHHHHHMSLAVVYSRASMGVQAPLVTIEVHLSNGKPAFTLVGLPEKTVTEAQGRVRSALLNAQFKYPAKRITVNLAPADLPKEGGRFDLPIALGILAASEQINAKKLQQFEFVAELALTGELRGVHGVIPAILAGQKSKRQLIVAQQNANEASLVSQHETFFARNLLEVVQFLNDDSSLPSSTTLCMQSAVDFSPQSNKDLTDIIGQQHAKRALMIAAAGQHNLLFLGPPGTGKTMLASRLTGLLPDMTDQEAIETASVTSLVQNELNFQNWKQRPFRAPHHSASSPALVGGGTIPKPGEISLAHNGVLFLDELPEFERRVLDALRQPLESGEIIISRANAKIQFPARFQLVAAMNPSPTGHYTGIHNRTSPQQVLRYLNRLSGPFLDRFDLSIEVPLLPQGALQNTEDRGETTAQVKEKVLRVREIQLARAGKVNAYLTGKEIERDCKLTEQDALFLENTLTRLGLSVRAYHRILKVARTIADLNGDSDIKQNHLAEALSYRAMDRLLRKLSDQ	not soluble
MGSSRKTANAATNNFPCHGSCPEPSFQIQVIARGVRRRRSPIDQPSMEADVDTDIIDHLKTLHTSEIDARNGYEEALEDAEGKGLTSLFRDMIALHHGNAEELAGMLINAGETADDSGSFMSVVHRTIMSVRSLFDGLDGSVLPGLIDGEKRNLSKYDDALKAIAGIPSISSTLSAQRAKISEKIALMEQQKAAYEAAT	not soluble
MDIRKFFGVIPSGKKLVSETVKKNEKTKSDEETLKAKKGIKEIKVNSSRKEDDFKQKQPSKKKRIIYDSDSESEETLQVKNAKKPPEKLPVSSKPGKISRQDPVTYISETDEEDDFMCKKAASKSKENGRSTNSHLGTSNMKKNEENTKTKNKPLSPIKLTPTSVLDYFGTGSVQRSNKKMVASKRKELSQNTDESGLNDEAIAKQLQLDEDAELERQLHEDEEFARTLAMLDEEPKTKKARKDTEAGETFSSVQANLSKAEKHKYPHKVKTAQVSDERKSYSPRKQSKYESSKESQQHSKSSADKIGEVSSPKASSKLAIMKRKEESSYKEIEPVASKRKENAIKLKGETKTPKKTKSSPAKKESVSPEDSEKKRTNYQAYRSYLNREGPKALGSKEIPKGAENCLEGLIFVITGVLESIERDEAKSLIERYGGKVTGNVSKKTNYLVMGRDSGQSKSDKAAALGTKIIDEDGLLNLIRTMPGKKSKYEIAVETEMKKESKLERTPQKNVQGKRKISPSKKESESKKSRPTSKRDSLAKTIKKETDVFWKSLDFKEQVAEETSGDSKARNLADDSSENKVENLLWVDKYKPTSLKTIIGQQGDQSCANKLLRWLRNWQKSSSEDKKHAKFGKFSGKDDGSSFKAALLSGPPGVGKTTTASLVCQELGYSYVELNASDTRSKSSLKAIVAESLNNTSIKGFYSNGAASSVSTKHALIMDEVDGMAGNEDRGGIQELIGLIKHTKIPIICMCNDRNHPKIRSLVHYCFDLRFQRPRVEQIKGAMMSIAFKEGLKIPPPAMNEIILGANQDIRQVLHNLSMWCARSKALTYDQAKADSHRAKKDIKMGPFDVARKVFAAGEETAHMSLVDKSDLFFHDYSIAPLFVQENYIHVKPVAAGGDMKKHLMLLSRAADSICDGDLVDSQIRSKQNWSLLPAQAIYASVLPGELMRGYMTQFPTFPSWLGKHSSTGKHDRIVQDLALHMSLRTYSSKRTVNMDYLSLLRDALVQPLTSQGVDGVQDVVALMDTYYLMKEDFENIMEISSWGGKPSPFSKLDPKVKAAFTRAYNKEAHLTPYSLQAIKASRHSTSPSLDSEYNEELNEDDSQSDEKDQDAIETDAMIKKKTKSSKPSKPEKDKEPRKGKGKSSKK	soluble
MAILQIGAGGVGWVVAHKAAQNNDVLGDITIASRTVGKCEKIIESIQKKNNLKDSTKKLEARAVNADDVDSLVALIEEVKPDLVINAGPPWVNMPIMEACYRAKVSYLDTSVAVDLCSEGQQVPEAYDWQWGYREKFEE	not soluble
MHNVVFVLGPPGSGKGTICAKIQENLNYVHLSAGDLLRAERQREGSEFGALIESHIKNGSIVPVEITCSLLENAMKACGDAKGFLVDGFPRNEDNLQGWNKQMDGKALVQFVLFLSCPVSICIERCLNRGQGRTDDNEESLKKRVETYNQQTFPIIEHFEKSGLVREVKSERPVDVVYADVEKVFDAANKK	not soluble
PAVLELEGKKWRVENQENVSNLVIEDTELKQVAYIYKCVNTTLQIKGKINSITVDNCKKLGLVFDDVVGIVEIINSKDVKVQVMGKVPTISINKTDGCHAYLSKNSLDCEIVSAKSSEMNVLIPTEGGDFNEFPVPEQFKTLWNGQKLVTTVTEIAG	soluble
FVSFKHKYKVTSINEIAKDTFEITGTSLKNELKYKAGQFAFIKIPEKKSFFPSHPFTMSNSNKSNEIQFSIKVLGDHTKALKENLKVGDTLSVSGPHGKFNYENGLKHQIWIAGGIGITPFRSFWQAELPSDYTVDLFYTYNNENEGAYINELNSINKNSNLNIHSIDSSKNGFLGLEDLEKHIDKNLEYSVFFCGPKPMREKLRRDFEKVNFKIKDMNYEHFHF	not soluble
